System: thrombus in carotid artery of rabbit
Assay: in vivo thrombolysis by t-PA, rabbit carotid artery thrombus (Example 4)
Details: for Thrombus Protein: 2 h infusion, femoral vein, n=4, saline control 1.97 ± 0.38
Experimental: The carotid artery of a rabbit was exposed from the surrounding tissue under anesthesia by pentobarbital. The exposed artery was surrounded with absorbent cotton soaked with glacial acetic acid and allowed to stay for 3 hours to form thrombus by the damage done to the endorthelium. The thus formed thrombus was tested for dissolution. Immediately after removing out the cotton, physiological saline in which the substance to be tested had been dissolved was injected through the femoral vein. The infusion was continued over 2 hours. After the infusion, the arterial segment wherein the thrombus had been formed was cut out and the thrombus mass was removed out under a microscope. The thrombus was dissolved in alkali and the protein was quantitatively measured by phenol method.

B1: t-PA: single or double chain tissue plasminogen activator (t-PA) (protein, UniProt P00750 36-562, looked up)
Tissue-type plasminogen …: SYQVICRDEKTQMIYQQHQSWLRPVLRSNRVEYCWCNSGRAQCHSVPVKSCSEPRCFNGGTCQQALYFSDFVCQCPEGFAGKCCEIDTRATCYEDQGISYRGTWSTAESGAECTNWNSSALAQKPYSGRRPDAIRLGLGNHNYCRNPDRDSKPWCYVFKAGKYSSEFCSTPACSEGNSDCYFGNGSAYRGTHSLTESGASCLPWNSMILIGKVYTAQNPSAQALGLGKHNYCRNPDGDAKPWCHVLKNRRLTWEYCDVPSCSTCGLRQYSQPQFRIKGGLFADIASHPWQAAIFAKHRRSPGERFLCGGILISSCWILSAAHCFQERFPPHHLTVILGRTYRVVPGEEEQKFEVEKYIVHKEFDDDTYDNDIALLQLKSDSSRCAQESSVVRTVCLPPADLQLPDWTECELSGYGKHEALSPFYSERLKEAHVRLYPSSRCTSQHLLNRTVTDNMLCAGDTRSGGPQANLHDACQGDSGGPLVCLNDGRMTLVGIISWGLGCGQKDVPGVYTKVTNYLDWIRDNMRP
thrombolytic effect (t-PA 0.48 mg/kg alone): no thrombolytic effect
Thrombus Protein (t-PA 0.48 mg/kg alone): 2.45 ± 0.81 mg
Thrombus Protein (t-PA 0.96 mg/kg alone): 0.40 ± 0.16 mg

From patent publication US5141947A, “Fibrinolysis-enhancing agents” (Mitsubishi Kasei Corporation, priority 1984, dated 1992)
